Laboratory results: paper PMC6302314

Columns and labels:
[1] = target: tau K18 ΔK280 (I260C/C291A/C322A), labelled with Alexa488 or Alexa647; assay: FRET or BRET; single-molecule FRET between copies; 5 μM tau–Alexa488 + 5 μM tau–Alexa647, aggregation started with heparin (1:4 heparin/tau), 22-42 °C; aliquots diluted 12.500 times into low ionic strength buffer (no NaCl); confocal detection in a microfluidic channel, 6 min per time point
[2] = target: tau K18 ΔK280 (I260C/C291A/C322A), labelled with Alexa488 or Alexa647; assay: FRET or BRET; single-molecule FRET between copies; 5 μM tau–Alexa488 + 5 μM tau–Alexa647, aggregation started with heparin (1:4 heparin/tau), 22-42 °C; aliquots diluted 12.500 times into high ionic strength buffer (0.5 M NaCl); confocal detection in a microfluidic channel, 6 min per time point

- maximum observed concentration of type A oligomers (37 °C) [1]: 104 nM
- maximum observed concentration of type B oligomers (37 °C) [2]: 37 nM
Substance: tau K18 ΔK280 (I260C/C291A/C322A), labelled with Alexa488 or Alexa647 (domain or fragment)
